Data taken from the nanobody polyreactivity screen of Harvey et al. (2022).

Test: yeast display, Sf9 membrane polyspecificity reagent, FACS + sequencing; frameworks hold sequencing errors
Method in brief: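 In a synthetic yeast display library (Saccharomyces cerevisiae BJ5465), nanobody expression was induced with galactose for 36–48 hours. FACS gates were set low and high (top ~1%) using anti-HA fluorescence for expression and streptavidin fluorescence for binding of the Sf9 membrane reagent. Each polyreactivity label is drawn from the gate of origin.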

Sequence	polyreactivity (PSR sort gate)
QVQLVESGGGLVQAGGSRRLSCAASGRTIGVYAMGWYRQAPGKERELVAAFSWSGGTTYYADSVKGRFTISCDNAMNTVYLQLNSLKPEDNAVYYCAADSFTEVDYWGQGTQVTVSS	low polyreactivity
QVQLVESGGGLVQAGGSLRLSCAASGRTFRLYAMGWYRQAPGKERELVARISRGGSTYYADSVKGRFTISRDNAKNTVYLQMNSLKPEDTAVYYCAAEGWGLSHRYDYWGQGTQVTVSS	high polyreactivity
QVQLVESGGGLVQAGGSLRLSCAASGSTFSYYTMGWYRQAPGKERELVAGISYSGGRTYYADSVKGRFTSSRDKAKNTVYLQMNSLKPEDTAVYYCAKVSWRRGAFYYWGQGTQVTVSS	high polyreactivity
QVQLVESGGGLVQAGGSLRLSCAASGRIFYNYAMGWYRQAPGKERELVAAISSSGGSTYYADSVKGRFTISRDNAKNTVYLQMNSLKPEDTAVYYCAVRKQYSGRYYRAYDYWGQGTQVTVSS	high polyreactivity
QVQLVESGGGLVQAGGSLRLSCAASGSTFRVYAMGWYRQATGKERELVAAIRWRGVTTYADSVKGRFTISRDNAKNTVYLQMNSLKPEDTAVYYCARDVNYPGSEGDYWGQGTQVTVSS	low polyreactivity
QVQLVESGGGLVQAGGSISLSCAASGRIFPTNDMGWYRQAPGKERELVASIDSVGSTKYADSVKGRFTISRDNAKNTVYLQMNSLKPEDTAVYYRALQVLNYDYWGQGTQVTVSS	low polyreactivity
QVQLVESGGGLVQAGGSLRLSCAASGFTFRKYAMGWYRQAPGKESELVAAISWSGGSTYYADSVKGRFTISRDNAKNTVYLQMNSMKPEDTAVYYCAAPHWSPYDYWGQGTQVTVSS	high polyreactivity
QVQLVESGGGLVQAGGSLRLSCAASGRTSLGYDMGWYRQAPGKERELVAAITRGGSTYYADSVKGRFTISRDNAKNTVYLQMNSLKPEDTAVYYCAARPWTSASYDYWGQGTQVTVSS	low polyreactivity
QVQLQESGGGLVQAGGSLRLSCAASGYIFPRIYMGWYRQAPGKEREFDAGISYDAITNYADSVKGRYTISLDNAKNTVYLQMNSLKPEDTAVYYCAVSYYGTPLFTYWGQGTQVTVSS	high polyreactivity
QVQLVESGGGLVQAGGSLRLSCAASGNIFLYYAMGWSRQAPGKERELVADIDSSGASTYYADSVKGRFTISRDNAKNTVYLQMNSLKPEDTAVYYCAAEFHWWYAGYDYGYWGQGTQVTVSS	low polyreactivity
QDQLVESGGGLVQAGGSLRLSGAASGRTFLGYAMGCYRQAPGKERALVAAITWRGGITYYADSVKGRFTISRDNAKNTVYLQMNSLKPEDTAVYYCAARKVGNRYTYYWGQGTQVTVSS	high polyreactivity
QVQLVESGGGLVQAGGSLRLSCAASGFTFRNYAMGWYRQAPGKEREFVAAISFSGGRTYYADSVKGRFTISRDNAKNTVYLQMNSLKPEDTAVYYCAKKSYSKYDYWGQGTQVTVSS	low polyreactivity
QVQLVESGGGLVQAGGSLRLSCAASGSTFVHYAMGWYRQAPGKERELVAAITISGGRTYYADSVKGRFTISRDNAKNTVYLQMNSLKAEDTAVYYCNADHYHRTWGYDYWGQGTQVTVSS	low polyreactivity
QVQLVESGGGLVQAGGSLRLSCAASGFTFDFYAMGWYRQAPGKERELVAVISSSGRTYYADSVKGRFTISRDNAKNTVYLQMNSLKPEDTAVYYCAAKAKRGHTYDYWGQGTQVTVSS	high polyreactivity
QVQLVESGGGLVQAGGSLRLSCAASGSTFGRYAKGWYRQAPGKERQLVAAISSSGVTTYYADSVKGRFTISRDNAKNSVYLQINSLKPEDTAVYYCSQTYKYHRWITKYGYWGQGTQVTVSS	high polyreactivity
QVQLVESGGGLVQAGGSLRLSCAASGFIFYDYALGWYRQAPGKERELVAAITQRGGSTYYADSVKGRFPISRDNAKKTVYLQMTSLKPVDTAVYSCAAKDAPYWFPITHVQPVDMDYWGQGTQVTVSS	high polyreactivity
QVQLVESGGGLVQAGGSLRLSCAASGSIFYVYAMGWYRQAPGKERELVAAISRRGARTYYADSVKGRFTISRDTAKYPVYLQMNSLQPEDTAVYYCNADQYSTVGYSAEYEYWGHGTQVTVSS	low polyreactivity
QVQLVESGGGLVQAGGSLRLSCAASGPMFTSNAMGWYRQAPGKERELVAAISRRGTRTYYADSVKGRFTISRDNAKNTVYLQMNSLKPEDTAVYYCAATTGEQEDYWGQGTQVTVSS	high polyreactivity
QVQLVESGGGLVQAGGSLRLSCAASGLIFRQYPMGWYRQAPGKERELVAAITGSGGRTYYADSVKGRFTISRDNAKNTVYLQMNSLKPEDTAVYYCARPNLLSGDYWGQGTQVTVSS	high polyreactivity
QVQLVESGGGLFQAGGSLRLSCAASGIIFPYYVMGWSRQAPGTEREFVATISWSGGRTYYADSVKGRFTISRDNAKNTVYFQMNSLKPEDTAVYYCAAAKHYYNGYGYWGQGTQVTVSS	high polyreactivity
QVQLVESGGGLVQAGGSLRLSCAASGLTFEWYTMGWYRQAPGKERALVAVITVSGSSTYYADSVKGRFSISRDNAKNTVYFQMNSLKPEDTAVYYCNADWSFYSYTLYDYWGQGTQVTVSS	low polyreactivity
QVQLVESGGGLVQAGGSLRLSCAASGSTFPGYDMGWYRQAPGKERELVAAISWRDGRTFYADSVKGRFTISRDNAKNTVYLQMNSLKPEDSAVYYCAAAQRTAYLTYSYKYNYWGQCTQVTVSS	high polyreactivity

Sequence	polyreactivity (PSR sort gate)
QVQLVESGGGLVQAGGSLRLSCAASGSTLVWNAMGWYRQAPGKERELVAGITTSGGSTSYADSVKGRFTISRDNAKNTVYLQMNSLKQEDTAVYYCAVDAAIYTNKLDYWGQGTQVTVSS	low polyreactivity
QVQLVESGGGLVQAGGSLRLSCAASGRIFRGNAMGWYRQAPGKERELVAAISWGGGSTYYAYSVKGRFTISRDNAKNTVYLQMNSLKPEDTAVYYWNKEYVFWRFPNWYTYGYWGQGTQVTLSS	high polyreactivity
QVQLVESGGGLVQAGGSLRLSCAASGITFDLYVMGWYRQAPGKERDLVAAINRGTSTYYADSVKGRFTISRDNAKITVYLQMNSLKPEDTAVYYCAADSGGVALYRYDYWGKGTQVTVSS	low polyreactivity
QVQLVESGGGLVQAGGSLRLSCAASAIIFAQYTMGWNRQAPGKERELVAAINRNGGSTYYADSVKGRFTISRDNAKNTVYLQMNSLKPEDTAVYYCNADALGFRYDYWGQGTQVTVSS	low polyreactivity
QVQLVESGGGLVQAGGSLRLSCAASGRIFRLYAMGWYRQAPGKEREFVATITWIGGRTYYADSVKGRFTISRDTAKNTVYLQMNSLKPEDTAVYYCAADPGYTYEYWGQGTQVTVSS	low polyreactivity
QVQLVESGGGLVQAGGSLRLSCAASGRIFATYAMGWYRQAPGKERELVAAISDSGGRTYYADSVKGRFTISRDNAKNTVYLQMNSLKPADTALYYCAAKNGDRYARGYWGQATQVTVSS	high polyreactivity
QVQLVESGGGLVQAGGSLRLSCAASGRIFFKYAMGWYRQAPGKERELVAAISKTGGRTYYADSVKGRFTISRDNAKNTVYLQMNSLKPEDTAVYYCRGYTSFGYDYWGQGTQVTVSS	high polyreactivity
QVQLVESGGGLVQAGGSLRISCAASGNIFVDYAMGWYTQAPGKERELVATITRTGDSTTYADSVKGRFTISRDNAKNTVYLQMNSLKPEDTAVYYCNTDLRLVYRTKGFISWGYDYWGQGTQVTVSS	low polyreactivity
QVQLVESGGGLVQAGGSLRLSCAASGIIFWLYTMGWYRQAPGKERELVAAITSGGSTYYAESVKGRFTISRDNAKNTVYLQMNSLKPEDTAVYYCAAVSRAPGLRYDYWGQGTQVTVSS	high polyreactivity
QVQLVESGGGLVQAGGSLRLSCAASGSIFRINAMGWYRQAPGKERELVAAISTSGGTTYYADSVKGRFTISRDNAKNTVYLQMNSLKPEDTAVYYCSARRVTSPFGSDSWGQGTQVTVSS	low polyreactivity
QVQLVESGGGLVQAGGSLRLSCAASGFIFSYYAMGWYRQAPGKERELVAAITSSGGSTYYADSVKGRFTISRDNAKNTVYLHLNSLKPEDTAVYYCNAYVRRTRDYDYWGQGTQVTVSS	high polyreactivity
QVQLVESGGGLVQAGGSLRLSCAASGSTFKIYAMAWYRQAPGKERELVAAITGSGGSTYYADSVKGRFTISRDNAKNTVYLQMNSLKPEDTAVYYCAVDVYYYVATEFYEYDYWGQGTQVTVSS	high polyreactivity
QVQLVESGGGLVQAGGSLRLSCAASGSIFDNYAMGWYRQAPGKEREFVAGISWSGGSTRYADSVKGRFTISRDNAKNTVYLQMNSLKPEDTAVYYCNTGYGLVDFLYGYYYWGQGTQVTVSS	low polyreactivity
QVQLVESGGGLVQAGVSLRLSCAPSGRTFIYYAMGWYRQAPGKERELVATINGITGSTYYADSVKGRFTNSRDNAKNTVYLQMNSLKPEDTAVYYCAKVPRKYRAWMDYWGQGTQVTVSS	high polyreactivity
QVQLVESGGGLVQAGGTLRLSCAASGRTFPSNAMGWYRQAPGKEREFVASITYSGGRTYYADSVKGRFTISRDNAKNTVYLQMNSLKPEDTAVFYCATARYRYHYYSWGQGTQVTVSS	high polyreactivity
QVQLVESGGGLVQAGGSLRLSSTASGFTFKLYAMGWERHATGKERELVAAISSYGGRTYYADSVKGRFTISRDNAKNTVYLQMKSLKPEDTAVYYCKAVRTVNDYHYDYWGQGTQVTVSS	high polyreactivity
QVQLVESGGGLVQAGGSLRLSCAASGLIFAGYAMGWYRQAPGKERELVAAITWRGGRTYADSVKGRFTISRDNAKNTVYLQMNSLKPEDTAVFYCAVRRWGTSFVEDDYWGQGTQVTVSS	low polyreactivity
QVQLVESGGGLVQAGGSLRLSCAASGRTFSTNAMGWYRQAPGKERELVAAITSRGGSTYYADSVKGRFTISRDNAKNTVYLQMNSLKPEDPAVYYCAVDPLYYKTHYGTLGYYYLGQGTQVTVSS	low polyreactivity
QVQLVESGGGLVQAGGSLRLSCAASGSIFAQYAMGWYRQAPGKERELVAAISRTGGGTYYADSVKGRFTISRDNAKNTVYLQMNSLKPEDTAVYYCAAVPGLFYLPYDYWGQGTQVTVSS	low polyreactivity
QVQLVESGGRLGQAGGSLRISCAASGGTFWYYDMGWYRQAPGKERELVAAISSGGNTYYADSVKGRFTISRDNAKITVYLQMNSLKPEDTAVYYCAALPKYGSYYYYPPFDYDYWGQGTQVTVSS	low polyreactivity
QVQLVESGGGLVQAGGSLSLSCAASGRTFSPYAMGWYRQAPGKERELVAAITNGGSTHYADSVKGRFTISRDNAKNTVYLQMNTLKPEYTAVYYCAKSRVLYGYAEYYEMDYWGQGTQVTVSS	low polyreactivity
